Square brackets hold non-standard residues; d marks the D form. Ends that are not written are not given here. Tyr(3-NO2) = N[C@@H](Cc1ccc(O)c([N+](=O)[O-])c1)C(=O)O; 2Abz = Nc1ccccc1C(=O)O
How the values were obtained:
Format in all cases: biochemical
uPA = uPA (Homo sapiens, UniProt P00749); experiment: FRET peptide cleavage efficiency with uPA
MMP-9 = molecular target: T1, MMP-9 (Homo sapiens, UniProt P14780); experiment: FRET peptide cleavage efficiency with MMP-9 (standard pH 7.5; also pH 6.5)
T1 construct: purchased SIGMA PF024
T1 sequence (P14780 94-707): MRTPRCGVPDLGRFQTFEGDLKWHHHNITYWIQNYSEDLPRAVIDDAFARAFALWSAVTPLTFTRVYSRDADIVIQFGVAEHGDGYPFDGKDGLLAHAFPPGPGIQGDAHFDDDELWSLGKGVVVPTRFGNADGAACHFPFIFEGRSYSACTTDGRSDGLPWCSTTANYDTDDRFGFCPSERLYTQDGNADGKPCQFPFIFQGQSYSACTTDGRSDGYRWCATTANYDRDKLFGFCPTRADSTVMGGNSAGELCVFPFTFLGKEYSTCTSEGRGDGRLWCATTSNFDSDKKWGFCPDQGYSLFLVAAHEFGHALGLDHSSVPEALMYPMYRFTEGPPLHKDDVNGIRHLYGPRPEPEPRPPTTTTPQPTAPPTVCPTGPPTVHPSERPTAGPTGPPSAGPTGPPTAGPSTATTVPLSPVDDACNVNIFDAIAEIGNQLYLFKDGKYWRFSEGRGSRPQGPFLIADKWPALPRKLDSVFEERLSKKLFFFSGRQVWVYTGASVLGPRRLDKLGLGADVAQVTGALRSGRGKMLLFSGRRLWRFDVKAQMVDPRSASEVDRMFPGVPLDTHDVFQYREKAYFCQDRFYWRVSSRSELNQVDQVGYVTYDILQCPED

MMP-7 = molecular target: T2, MMP-7 (Homo sapiens, UniProt P09237); experiment: FRET peptide cleavage efficiency with MMP-7 (standard pH 7.5; also pH 6.5)
T2 construct: purchased SIGMA CC1059
T2 sequence (P09237 95-267): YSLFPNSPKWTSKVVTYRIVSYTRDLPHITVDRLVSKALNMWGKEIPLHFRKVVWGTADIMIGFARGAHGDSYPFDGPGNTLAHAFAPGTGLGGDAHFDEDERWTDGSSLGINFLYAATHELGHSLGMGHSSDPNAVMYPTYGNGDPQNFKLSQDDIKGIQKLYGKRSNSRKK

MMP-2 = molecular target: T3, MMP-2 (Homo sapiens, UniProt P08253); experiment: FRET peptide cleavage efficiency with MMP-2
T3 construct: purchased SIGMA PF023
T3 sequence (P08253 110-660): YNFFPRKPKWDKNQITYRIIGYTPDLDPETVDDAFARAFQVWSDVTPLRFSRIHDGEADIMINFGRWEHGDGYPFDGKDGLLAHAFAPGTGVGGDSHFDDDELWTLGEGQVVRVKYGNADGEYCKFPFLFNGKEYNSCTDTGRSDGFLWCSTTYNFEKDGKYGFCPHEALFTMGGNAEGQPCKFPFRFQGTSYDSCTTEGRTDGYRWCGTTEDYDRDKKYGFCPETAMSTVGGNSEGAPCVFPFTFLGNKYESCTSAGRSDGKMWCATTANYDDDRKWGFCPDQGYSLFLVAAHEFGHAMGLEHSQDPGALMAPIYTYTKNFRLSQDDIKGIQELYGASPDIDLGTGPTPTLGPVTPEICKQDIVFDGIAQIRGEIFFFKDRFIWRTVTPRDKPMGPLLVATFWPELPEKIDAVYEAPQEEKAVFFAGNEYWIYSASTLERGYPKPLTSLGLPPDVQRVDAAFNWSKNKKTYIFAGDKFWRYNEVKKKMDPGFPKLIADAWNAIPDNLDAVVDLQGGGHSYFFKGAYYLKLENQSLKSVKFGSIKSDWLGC

matriptase = molecular target: T4, matriptase (Homo sapiens, UniProt Q9Y5Y6); experiment: FRET peptide cleavage efficiency with matriptase
T4 construct: purchased R&D Systems 3946-SEB
T4 sequence (Q9Y5Y6 615-855 limits assumed): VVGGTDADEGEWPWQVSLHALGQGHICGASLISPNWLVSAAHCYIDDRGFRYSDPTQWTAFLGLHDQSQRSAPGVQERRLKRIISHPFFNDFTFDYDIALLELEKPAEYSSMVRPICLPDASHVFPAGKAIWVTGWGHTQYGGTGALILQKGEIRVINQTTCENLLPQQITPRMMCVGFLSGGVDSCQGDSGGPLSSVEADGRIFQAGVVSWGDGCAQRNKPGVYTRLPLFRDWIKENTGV

[1] = t = 15 min, 200 uM linker, 1 ug/ml protease, 37° C., buffer A pH 8.5
[2] = 200 uM linker, 1 ug/ml protease, 37° C., buffer A pH 8.5
[3] = t = 15 min, 200 uM linker, 1 ug/ml protease, 37° C., buffer C pH 7.5
[4] = t = 60 min, 200 uM linker, 1 ug/ml protease, 37° C., buffer C pH 7.5
[5] = t = 120 min, 200 uM linker, 1 ug/ml protease, 37° C., buffer C pH 7.5
[6] = 200 uM linker, 1 ug/ml protease, 37° C., buffer B pH 9.0
[7] = t = 15 min, standard conditions (Table 8)
[8] = t = 60 min, standard conditions (Table 8)
[9] = t = 120 min, standard conditions (Table 8)

Sequence | % cleavage uPA t = 15 min (uPA; [1]) [%] | % cleavage uPA t = 60 min (uPA; [2]) [%] | % cleavage uPA t = 120 min (uPA; [2]) [%] | % cleavage MMP-9 t = 15 min (MMP-9; t = 15 min (Table 9)) [%] | % cleavage MMP-9 t = 60 min (MMP-9; t = 60 min (Table 9)) [%] | % cleavage MMP-9 t = 120 min (MMP-9; t = 120 min (Table 9)) [%] | % cleavage MMP-7 t = 15 min (MMP-7; t = 15 min (Table 9)) [%] | % cleavage MMP-7 t = 60 min (MMP-7; t = 60 min (Table 9)) [%] | % cleavage MMP-7 t = 120 min (MMP-7; t = 120 min (Table 9)) [%] | % cleavage MMP-2 t = 15 min (MMP-2; t = 15 min (Table 9)) [%] | % cleavage MMP-2 t = 15 min (MMP-2; [3]) [%] | % cleavage MMP-2 t = 60 min (MMP-2; t = 60 min (Table 9)) [%] | % cleavage MMP-2 t = 60 min (MMP-2; [4]) [%] | % cleavage MMP-2 t = 120 min (MMP-2; t = 120 min (Table 9)) [%] | % cleavage MMP-2 t = 120 min (MMP-2; [5]) [%] | % cleavage Matriptase t = 15 min (matriptase; [6]) [%] | % cleavage Matriptase t = 60 min (matriptase; [6]) [%] | % cleavage Matriptase t = 120 min (matriptase; [6]) [%] | further results
RGRRVANPLGLAGSG ([2Abz]RGRRVANPLGLAGSG[Tyr(3-NO2)]-NH2) [LNK050] | 1 | 3 | 6 | 52 | 100 | 100 | 1 | 3 | 6 | 54 | 54 | 100 | 100 | 100 | 100 | 78 | 100 | 100 | 
RGRRPLGYFGKL ([2Abz]RGRRPLGYFGKL[Tyr(3-NO2)]-NH2) [LNK057] | 0 | 0 | 0 | 20 | 100 | 100 | 0 | 0 | 0 | 71 | 71 | 100 | 100 | 100 | 100 | 22 | 78 | 100 | 
RGRKSPANLVG ([2Abz]RGRKSPANLVG[Tyr(3-NO2)]-NH2) [LNK034] |  |  |  | 100 | 100 | 100 | 32 | 89 | 100 | 92 |  | 100 |  | 100 |  |  |  |  | % vcleavage uPA t = 15 min (uPA; [7]): 0%; % cleavage uPA t = 60 min (uPA; standard conditions (Table 8)): 0%; % cleavage uPA t = 120 min (uPA; standard conditions (Table 8)): 0%; % cleavage MMP-9 t = 15 min (MMP-9; [7]): 100%; % cleavage MMP-9 t = 60 min (MMP-9; [8]): 100%; % cleavage MMP-9 t = 120 min (MMP-9; [9]): 100%; % cleavage MMP-7 t = 15 min (MMP-7; [7]): 32%; % cleavage MMP-7 t = 60 min (MMP-7; [8]): 89%; % cleavage MMP-7 t = 120 min (MMP-7; [9]): 100%; % cleavage MMP-2 t = 60 min (MMP-2; [8]): 100%; % cleavage MMP-2 t = 120 min (MMP-2; [9]): 100%; % cleavage Matriptase t = 15 min (matriptase; standard conditions (Table 8)): 100%; % cleavage Matriptase t = 60 min (matriptase; standard conditions (Table 8)): 100%; % cleavage Matriptase t = 120 min (matriptase; standard conditions (Table 8)): 100%
SGRPLGYFGKL ([2Abz]SGRPLGYFGKL[Tyr(3-NO2)]-NH2) [LNK056] | 0 | 0 | 0 | 32 | 100 | 100 | 0 | 0 | 0 | 75 | 75 | 100 | 100 | 100 | 100 | 0 | 0 | 0 | 
